2 molecules from patent US20090265797A1 (PIERRE FABRE MEDICAMENT, published 2009) can be followed below.

The target of test [1] is IGF-IR on MCF-7 or HT29 cells (human, UniProt P08069 31-1367). The test can be described thus: cell-based or functional assay.
The target in test [2] is T1, human IGF-IR (hIGF-IR) from membrane lysate of NIH 3T3 cells stably transfected with the human IGF-IR cDNA, … (human, UniProt P08069 31-1367).
T1 construct: Whole receptor (alpha and beta subunits from one precursor) solubilised from membranes, not on cells; also called immobilized hIGF-IR; human IGF-1 receptor
Put plainly: competition of 100 pM [125I]-IGF1 binding to immobilized hIGF-IR; reference: unlabeled IGF1. The procedure: (§1) Two hundred μl of a 20 μg/ml antibody solution in PBS were added to each well and incubated overnight at +4° C. The buffer containing residual 17-69 not attached to protein A was removed by aspiration. Two hundred μl of the membrane lysate at 100 μg/ml were further added and incubated for 2 h at room temperature to immobilize IGF-IR. Non captured proteins were removed by aspiration. […] The plates were incubated at room temperature for 2 h, then counted on a Packard Top Count Microplate Scintillation Counter.
(§2) Concentrations of the various inhibitors required to inhibit the radioligand binding by 50% (IC₅₀) were determined graphically from the sigmoid competition curves obtained (FIGS. 1 and 2).

The target in test [3] is T1, human IGF-IR (hIGF-IR) from membrane …. The test can be described thus: competition of 100 pM [125I]-IGF2 binding to hIGF-IR captured by antibody 17-69 on Protein A FlashPlate. The protocol:
as §1, §2

Test [4] shares this target. Put plainly: competition of 100 pM [125I]-IGF1 binding to hIGF-IR captured by antibody 17-69 on Protein A FlashPlate; displacement of [^125I]-IGF1 (not [^125I]-IGF2) from immobilized hIGF-IR. The procedure:
as §1, §2

The target of test [5] is soluble human insulin-like growth factor-1 receptor (hIGF-IR) extra-cellular domain (ECD) (human) (UniProt P08069). The test can be described thus: SPR, BIAcore T100, 25 °C; antibody captured by anti-human IgG Fc on CM5, hIGF-IR-ECD as analyte; KD = kd/ka. In general terms: SPR reads the build-up and loss of mass on a sensor chip optically.
For test [6] the target is unchanged. The test can be described thus: SPR, BIAcore T100, 25 °C; antibody captured by anti-human IgG Fc on CM5, hIGF-IR-ECD as analyte (6.25-100 nM).

T1 sequence (P08069 31-1367 limits assumed): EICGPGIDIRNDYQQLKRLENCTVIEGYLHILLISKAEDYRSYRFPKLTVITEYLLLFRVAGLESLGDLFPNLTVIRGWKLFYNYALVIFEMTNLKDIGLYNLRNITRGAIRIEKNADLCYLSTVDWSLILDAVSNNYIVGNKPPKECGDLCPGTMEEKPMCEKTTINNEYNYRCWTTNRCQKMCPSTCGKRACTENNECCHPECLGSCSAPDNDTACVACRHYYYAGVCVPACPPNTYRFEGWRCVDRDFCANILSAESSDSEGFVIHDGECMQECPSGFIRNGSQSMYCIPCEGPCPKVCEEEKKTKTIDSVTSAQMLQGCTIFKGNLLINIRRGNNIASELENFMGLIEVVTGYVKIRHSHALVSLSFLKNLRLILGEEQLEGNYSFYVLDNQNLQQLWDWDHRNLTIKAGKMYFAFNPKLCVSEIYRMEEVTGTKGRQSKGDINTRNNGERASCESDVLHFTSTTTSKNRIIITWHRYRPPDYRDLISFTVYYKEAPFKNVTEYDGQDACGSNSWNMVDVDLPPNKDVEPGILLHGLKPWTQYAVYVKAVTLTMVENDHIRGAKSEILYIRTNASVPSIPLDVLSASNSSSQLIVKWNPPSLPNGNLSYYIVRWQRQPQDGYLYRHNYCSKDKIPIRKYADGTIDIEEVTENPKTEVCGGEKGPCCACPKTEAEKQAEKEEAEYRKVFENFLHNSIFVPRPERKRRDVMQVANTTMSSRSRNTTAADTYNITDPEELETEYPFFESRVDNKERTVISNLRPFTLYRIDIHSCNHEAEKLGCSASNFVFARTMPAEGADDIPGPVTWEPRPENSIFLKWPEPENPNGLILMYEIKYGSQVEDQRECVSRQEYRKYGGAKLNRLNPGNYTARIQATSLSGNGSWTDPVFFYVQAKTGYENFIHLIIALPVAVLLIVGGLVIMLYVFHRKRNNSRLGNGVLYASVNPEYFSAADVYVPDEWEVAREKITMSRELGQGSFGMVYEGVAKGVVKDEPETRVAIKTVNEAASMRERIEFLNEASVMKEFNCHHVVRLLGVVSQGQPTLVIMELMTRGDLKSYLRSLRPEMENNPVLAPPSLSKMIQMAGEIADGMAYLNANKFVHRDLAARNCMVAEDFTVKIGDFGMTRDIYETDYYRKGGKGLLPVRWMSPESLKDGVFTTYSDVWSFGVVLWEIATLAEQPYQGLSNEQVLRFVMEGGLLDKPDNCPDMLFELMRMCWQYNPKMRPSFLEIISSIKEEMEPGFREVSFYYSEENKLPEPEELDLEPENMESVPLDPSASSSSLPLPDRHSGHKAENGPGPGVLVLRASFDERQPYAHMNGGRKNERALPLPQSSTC
Sequence of IGF-IR on MCF-7 or HT29 cells (P08069 31-1367): as the sequence (P08069 31-1367 limits assumed) above

B1: murine monoclonal antibody I-3466 (antibody, V domains shown)
VH: EVMLVESGGDLVKPGGSLKLSCAASGFTFNNYIMSWVRQTPEKRLEWVATISGGGSYTFYPDSVKGRFSISRDNAKNTLYLQMSSLRSEDTAMYFCTRNQLLTGMINPLTTPRAWFTYWGQGTLVTVSA
VL: DIVMSQSPSSLAVSAGEKVTMNCKSSQSLLDSRTRKNYLAWYQQKPGQSPKLLIYWASTRESGVPDRFTGSGSGTDFTLTISSVQAEDLAVYYCKQSYNLFTFGGGTKLEIK
notes: a mouse IgG1 (9G4) served as its isotype control
B1: the “IC50 of inhibition of IGF1-induced proliferation of MCF-7 cells” value in test [1] was 700 pM. The “IC50 of inhibition of IGF2-induced proliferation of MCF-7 cells” value in test [1] amounted to 500 pM. For the same molecule, the “fold lower IC50 than non radiolabeled IGF1” value in test [2] came to 30 fold. Further, the half-maximal inhibitory concentration (IC50) in test [3] is ~100 pM; in test [4], 21 pM.

B2: Humanized I-3466 IgG1 antibody (antibody, V domains shown)
VH: EVQLVESGGDLVQPGGSLRLSCAASGFTFNNYIMSWVRQAPGKGLEWVATISGGGSYTFYPDSVKGRFTISRDNSKNTLYLQMNSLRAEDTAVYFCTRNQLLTGMINPLTTPRAWFTYWGQGTLVTVSS
VL: DIVMTQSPDSLAVSLGERATINCKSSQSLLDSRTRKNYLAWYQQKPGQPPKLLIYWASTRESGVPDRFSGSGSGTDFTLTISSLQAEDVAVYYCKQSYNLFTFGGGTKVEIK
In turn, B2 showed a Kd in test [5] of 342 pM. In test [6], this molecule had a dissociation rate constant (koff) of 6.29e-05 s⁻¹ and a kon of 184000 M⁻¹ s⁻¹.

One may read the IC50 as the concentration needed to halve the response being measured. High values mean lower potency, low ones higher potency. The Kd is the equilibrium constant for the complex coming apart. A low value points to higher affinity. Usually koff stands for the rate constant with which the complex falls apart. Broadly, the kon is the rate constant with which the complex forms. High values mean faster complex formation, low ones slower complex formation.
